Laboratory results taken from patent publication US20230212587A1, “Mutant Hydroxyphenylpyruvate Dioxygenase Polypeptide, Encoding Gene Thereof and Use Therefor” (Beijing Dabeinong Biotechnology Co., Ltd., priority 2019, published 2023).

Tested on: Arabidopsis thaliana T1 plants
Assay: Topramezone tolerance of transgenic Arabidopsis thaliana T1 plants (pesticide damage grade by bleached leaf area, score, resistance evaluation)
Type: in vivo
Set-up: score: scale not given here
Conditions: for Resistance evaluation / Scores / Classification and statistics of pesticide damage grade: Grade 0 / Classification and statistics of pesticide damage grade: Grade 1 / Classification and statistics of pesticide damage grade: Grade 2 / Classification and statistics of pesticide damage grade: Grade 3: HPPDs from ecotypes of Triticum aestivum; for Classification and statistics of pesticide damage grade: Grade 0 / Classification and statistics of pesticide damage grade: Grade 1 / Classification and statistics of pesticide damage grade: Grade 2 / Classification and statistics of pesticide damage grade: Grade 3 / Grade 0 / Grade 1 / Grade 2 / Grade 3: number of plants; for Resistance Grade / score / Grade 0 / Grade 1 / Grade 2 / Grade 3: HPPD from Avena sativa source
In short: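 Eighteen days after sowing, wild-type and HPPD-transgenic T1 Arabidopsis receive a topramezone spray at 1×, 2× or 4× field rate (25–100 g ai/ha) or water. Seven days later each plant is graded by its proportion of bleached leaf area.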

| Molecule | Resistance evaluation (topramezone 25 g ai/ha (1x)) | Scores (topramezone 25 g ai/ha (1x)) | Classification and statistics of pesticide damage grade: Grade 0 (topramezone 25 g ai/ha (1x)) | Classification and statistics of pesticide damage grade: Grade 1 (topramezone 25 g ai/ha (1x)) | Classification and statistics of pesticide damage grade: Grade 2 (topramezone 25 g ai/ha (1x)) | Classification and statistics of pesticide damage grade: Grade 3 (topramezone 25 g ai/ha (1x)) | Resistance evaluation (topramezone 100 g ai/ha (4x)) | Scores (topramezone 100 g ai/ha (4x)) | Classification and statistics of pesticide damage grade: Grade 0 (topramezone 100 g ai/ha (4x)) | Classification and statistics of pesticide damage grade: Grade 1 (topramezone 100 g ai/ha (4x)) | Classification and statistics of pesticide damage grade: Grade 2 (topramezone 100 g ai/ha (4x)) | Classification and statistics of pesticide damage grade: Grade 3 (topramezone 100 g ai/ha (4x)) | Resistance Grade (topramezone 25 g ai/ha (1x)) | score (topramezone 25 g ai/ha (1x)) | Grade 0 (topramezone 25 g ai/ha (1x)) | Grade 1 (topramezone 25 g ai/ha (1x)) | Grade 2 (topramezone 25 g ai/ha (1x)) | Grade 3 (topramezone 25 g ai/ha (1x)) | Resistance Grade (topramezone 50 g ai/ha (2x)) | score (topramezone 50 g ai/ha (2x)) | other results |
| --- | --- | --- | --- | --- | --- | --- | --- | --- | --- | --- | --- | --- | --- | --- | --- | --- | --- | --- | --- | --- | --- |
| TaHPPD7-02: native HPPD of Triticum aestivum ecotype 7, UniProt A7WK82, SEQ ID NO: 213 (protein, listed as Triticum aestivum, TaHPPD7 Amino Acid Sequence) MPPTPTTPAATGAAAAAAVTPEHARPRRMVRFNPRSDRFHTLAFHHVEFWCADAASAAGRFAFALGAPLAARSDLSTGNSVHASQLLRSGNLAFLFTAPYANGCDAATASLPSFSADAARRFSADHGLAVRSIALRVADAAEAFRASVDGGARPAFSPVDLGRGFGFAEVELYGDVVLRFVSHPDGTDVPFLPGFEGVSNPDAVDYGLTRFDHVVGNVPELAPAAAYVAGFTGFHEFAEFTTEDVGTAESGLNSMVLANNSEGVLLPLNEPVHGTKRRSQIQTFLEHHGGPGVQHIAVASSDVLRTLREMRARSAMGGFDFLPPPLPKYYEGVRRIAGDVLSEAQIKECQELGVLVDRDDQGVLLQIFTKPVGDRPTCSWR | non-resistant (non-resistant plants (scores 68-100)) | 100 | 0 | 0 | 0 | 16 | non-resistant (non-resistant plants (scores 68-100)) | 100 | 0 | 0 | 0 | 16 |  |  |  |  |  |  |  |  |  |
| TaHPPD7m-F372A-02: Triticum aestivum ecotype 7 HPPD mutant F372A, SEQ ID NO: 216 (protein, TaHPPD7m-F372A Amino Acid Sequence) MPPTPTTPAATGAAAAAAVTPEHARPRRMVRFNPRSDRFHTLAFHHVEFWCADAASAAGRFAFALGAPLAARSDLSTGNSVHASQLLRSGNLAFLFTAPYANGCDAATASLPSFSADAARRFSADHGLAVRSIALRVADAAEAFRASVDGGARPAFSPVDLGRGFGFAEVELYGDVVLRFVSHPDGTDVPFLPGFEGVSNPDAVDYGLTRFDHVVGNVPELAPAAAYVAGFTGFHEFAEFTTEDVGTAESGLNSMVLANNSEGVLLPLNEPVHGTKRRSQIQTFLEHHGGPGVQHIAVASSDVLRTLREMRARSAMGGFDFLPPPLPKYYEGVRRIAGDVLSEAQIKECQELGVLVDRDDQGVLLQIATKPVGDRPTCSWR | highly resistant (highly resistant plants (scores 0-15)) | 8 | 12 | 4 | 0 | 0 | moderately resistant (moderately resistant plants (scores 16-33)) | 21 | 6 | 10 | 0 | 0 |  |  |  |  |  |  |  |  |  |
| F372L (protein, listed as Avena sativa, AsHPPD Amido Acid Sequence) MPPTPATATGAAAAAVTPEHAARSFPRVVRVNPRSDRFPVLSFHHVELWCADAASAAGRFSFALGAPLAARSDLSTGNSAHASLLLRSGALAFLFTAPYAPPPQEAATAAATASIPSFSADAARTFAAAHGLAVRSVGVRVADAAEAFRVSVAGGARPAFAPADLGHGFGLAEVELYGDVVLRFVSYPDETDLPFLPGFERVSSPGAVDYGLTRFDHVVGNVPEMAPVIDYMKGFLGFHEFAEFTAEDVGTTESGLNSVVLANNSEAVLLPLNEPVHGTKRRSQIQTYLEYHGGPGVQHIALASNDVLRTLREMRARTPMGGFEFMAPPQAKYYEGVRRIAGDVLSEEQIKECQELGVLVDRDDQGVLLQILTKPVGDRPTFFLEMIQRIGCMEKDEVGQEYQKGGCGGFGKGNFSELFKSIEDYEKSLEVKQSVVAQKS |  |  |  |  |  |  |  |  |  |  |  |  | Highly resistant | 0 | 20 | 0 | 0 | 0 | Highly resistant | 0 | Grade 0 (topramezone 50 g ai/ha (2x)): 20; Grade 1 (topramezone 50 g ai/ha (2x)): 0; Grade 2 (topramezone 50 g ai/ha (2x)): 0; Grade 3 (topramezone 50 g ai/ha (2x)): 0; Resistance Grade (topramezone 100 g ai/ha (4x)): Moderately resistant; score (topramezone 100 g ai/ha (4x)): 30; Grade 0 (topramezone 100 g ai/ha (4x)): 6; Grade 1 (topramezone 100 g ai/ha (4x)): 10; Grade 2 (topramezone 100 g ai/ha (4x)): 4; Grade 3 (topramezone 100 g ai/ha (4x)): 0 |
| F372P (protein, listed as Avena sativa, AsHPPD Amido Acid Sequence) MPPTPATATGAAAAAVTPEHAARSFPRVVRVNPRSDRFPVLSFHHVELWCADAASAAGRFSFALGAPLAARSDLSTGNSAHASLLLRSGALAFLFTAPYAPPPQEAATAAATASIPSFSADAARTFAAAHGLAVRSVGVRVADAAEAFRVSVAGGARPAFAPADLGHGFGLAEVELYGDVVLRFVSYPDETDLPFLPGFERVSSPGAVDYGLTRFDHVVGNVPEMAPVIDYMKGFLGFHEFAEFTAEDVGTTESGLNSVVLANNSEAVLLPLNEPVHGTKRRSQIQTYLEYHGGPGVQHIALASNDVLRTLREMRARTPMGGFEFMAPPQAKYYEGVRRIAGDVLSEEQIKECQELGVLVDRDDQGVLLQIPTKPVGDRPTFFLEMIQRIGCMEKDEVGQEYQKGGCGGFGKGNFSELFKSIEDYEKSLEVKQSVVAQKS |  |  |  |  |  |  |  |  |  |  |  |  | Highly resistant | 0 | 20 | 0 | 0 | 0 | Highly resistant | 0 | Grade 0 (topramezone 50 g ai/ha (2x)): 20; Grade 1 (topramezone 50 g ai/ha (2x)): 0; Grade 2 (topramezone 50 g ai/ha (2x)): 0; Grade 3 (topramezone 50 g ai/ha (2x)): 0; Resistance Grade (topramezone 100 g ai/ha (4x)): Moderately resistant; score (topramezone 100 g ai/ha (4x)): 33; Grade 0 (topramezone 100 g ai/ha (4x)): 4; Grade 1 (topramezone 100 g ai/ha (4x)): 12; Grade 2 (topramezone 100 g ai/ha (4x)): 4; Grade 3 (topramezone 100 g ai/ha (4x)): 0 |
| TaHPPD6m-F372A-02: Triticum aestivum ecotype 6 HPPD mutant F372A, SEQ ID NO: 210 (protein, TaHPPD6m-F372A Amino Acid Sequence) MVRFNPGSDRFHTLAFHHIEFWCTDAASADGRFAFSLGAPLAARSDLSTGNSTHASQLLRPGSLAFLFTAPYANGCIFSVDAARRFFADHGLAVRSVALRVADAAKAFRASVDGGARPAFAPVDLGRGFGFAEVKLYGDVVLRFVSHPDGTDVPFLPGLFEGVSNPGAVHYGLTRFDHIVGNVPELAPAAAYVAGLTGFHEFAEFTTEDVGTAQSGLNSVVLANTSEGVPLLLNEPVHGTKRRRQIQTFLEHHGGPGVQHIAVASSEVFRTLREMHARSSMGGFDFLPPPLPKYYEGVRRLAGDVLSEAQIKECQELGVLVNRDDQGVLLQIATKPVGDRPTFFLEMIQRIGCMEKDERGEEYQKGGCGGFGKGNISELFKSIEDYEKSLEAKQSAAVQGSYI | highly resistant (highly resistant plants (scores 0-15)) | 0 | 16 | 0 | 0 | 0 | highly resistant (highly resistant plants (scores 0-15)) | 2 | 15 | 1 | 0 | 0 |  |  |  |  |  |  |  |  |  |
